Measurements as given in patent KR20200072008A (dated 2020).

Target: SNAP25 197 from lysate of BoNT/A treated N2-42F cells (mouse, UniProt P60879 1-197)
Test: sandwich ELISA; detection of captured SNAP25 197 from N2-42F lysate

SNAP25 197 from lysate of BoNT/A treated N2-42F cells, sequence (P60879 1-197 limits assumed): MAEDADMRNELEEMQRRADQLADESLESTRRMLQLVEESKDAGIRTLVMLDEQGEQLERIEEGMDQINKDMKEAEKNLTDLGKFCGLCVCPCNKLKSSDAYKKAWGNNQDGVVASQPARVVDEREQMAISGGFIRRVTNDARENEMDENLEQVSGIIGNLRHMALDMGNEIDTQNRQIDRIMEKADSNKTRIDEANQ

B1: C16 IgG-HRP 접합체 (antibody, V domains shown)
VH: EVQLQQSGAELARPGASVQMSCKAFGYTFTNYTMHWVRQRPGQGLEWIGFINPSSDYTNYNQKFKDKATLSADKSSSTAYMQLSSLTSEDSAVYYCARRIFYNGRTYAAMDYWGQGTSVTVSS
VL: DIVMTQSPASLAVSLGQRATISCRASKSVSSSGYSYMHWYQQKPGQPPKLLIYLASNLESGVPARFSGSGSGTDFTLNIHPVEEEDAATYYCQHSRELPLTFGAGTKLELK
  binding result: binds
